Laboratory results reported in US20090061443.

Biological target: T1, Flag-CALM-AF10 fusion protein (wild-type), Q13492
T1 chain: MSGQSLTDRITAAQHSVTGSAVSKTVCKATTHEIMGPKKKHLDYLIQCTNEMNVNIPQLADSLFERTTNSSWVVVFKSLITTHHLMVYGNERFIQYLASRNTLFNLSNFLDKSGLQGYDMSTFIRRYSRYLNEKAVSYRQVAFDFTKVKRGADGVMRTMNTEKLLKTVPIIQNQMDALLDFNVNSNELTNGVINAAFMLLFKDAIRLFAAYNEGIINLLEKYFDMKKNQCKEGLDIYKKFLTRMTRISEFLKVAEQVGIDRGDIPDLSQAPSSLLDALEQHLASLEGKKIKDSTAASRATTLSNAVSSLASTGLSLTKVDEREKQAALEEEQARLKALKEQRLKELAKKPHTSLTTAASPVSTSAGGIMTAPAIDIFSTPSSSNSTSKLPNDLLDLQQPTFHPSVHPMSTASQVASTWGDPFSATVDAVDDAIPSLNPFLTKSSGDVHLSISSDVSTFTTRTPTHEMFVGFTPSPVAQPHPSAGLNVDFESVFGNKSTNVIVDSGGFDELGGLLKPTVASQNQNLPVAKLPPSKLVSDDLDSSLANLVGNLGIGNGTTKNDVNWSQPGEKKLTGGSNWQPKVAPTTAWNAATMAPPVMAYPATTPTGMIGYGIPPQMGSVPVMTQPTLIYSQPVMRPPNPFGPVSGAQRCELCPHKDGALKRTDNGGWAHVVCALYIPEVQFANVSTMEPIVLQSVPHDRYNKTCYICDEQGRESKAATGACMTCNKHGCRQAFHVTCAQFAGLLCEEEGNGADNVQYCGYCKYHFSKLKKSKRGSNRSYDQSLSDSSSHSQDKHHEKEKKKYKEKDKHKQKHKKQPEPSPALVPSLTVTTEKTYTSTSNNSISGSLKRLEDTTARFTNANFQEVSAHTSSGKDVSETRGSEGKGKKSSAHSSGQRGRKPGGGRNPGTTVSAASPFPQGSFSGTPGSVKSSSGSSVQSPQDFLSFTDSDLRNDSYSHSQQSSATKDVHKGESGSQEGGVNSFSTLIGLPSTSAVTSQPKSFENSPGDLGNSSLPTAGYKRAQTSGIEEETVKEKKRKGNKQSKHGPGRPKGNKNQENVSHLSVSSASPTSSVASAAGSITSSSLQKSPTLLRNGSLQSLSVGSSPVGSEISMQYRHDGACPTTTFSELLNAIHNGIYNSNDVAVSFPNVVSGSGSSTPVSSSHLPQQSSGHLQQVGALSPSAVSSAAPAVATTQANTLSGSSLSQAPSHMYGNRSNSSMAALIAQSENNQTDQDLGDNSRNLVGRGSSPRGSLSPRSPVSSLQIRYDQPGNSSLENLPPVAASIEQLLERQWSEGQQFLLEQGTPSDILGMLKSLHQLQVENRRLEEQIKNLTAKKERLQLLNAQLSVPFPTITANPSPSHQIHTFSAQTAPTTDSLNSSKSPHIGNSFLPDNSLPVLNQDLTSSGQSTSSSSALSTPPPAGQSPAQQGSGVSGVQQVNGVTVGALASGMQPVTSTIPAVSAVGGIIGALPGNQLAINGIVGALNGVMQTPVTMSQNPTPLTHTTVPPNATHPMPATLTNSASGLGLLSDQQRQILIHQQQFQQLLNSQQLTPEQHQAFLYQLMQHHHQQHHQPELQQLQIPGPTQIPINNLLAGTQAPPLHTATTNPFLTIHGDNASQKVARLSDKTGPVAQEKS

B1: hDOT1L (human DOT1-like protein) (protein)
chain: MGEKLELRLKSPVGAEPAVYPWPLPVYDKHHDAAHEIIETIRWVCEEIPDLKLAMENYVLIDYDTKSFESMQRLCDKYNRAIDSIHQLWKGTTQPMKLNTRPSTGLLRHILQQVYNHSVTDPEKLNNYEPFSPEVYGETSFDLVAQMIDEIKMTDDDLFVDLGSGVGQVVLQVAAATNCKHHYGVEKADIPAKYAETMDREFRKWMKWYGKKHAEYTLERGDFLSEEWRERIANTSVIFVNNFAFGPEVDHQLKERFANMKEGGRIVSSKPFAPLNFRINSRNLSDIGTIMRVVELSPLKGSVSWTGKPVSYYLHTIDRTILENYFSSLKNPKLREEQEAARRRQQRESKSNAATPTKGPEGKVAGPADAPMDSGAEEEKAGAATVKKPSPSKARKKKLNKKGRKMAGRKRGRPKKMNTANPERKPKKNQTALDALHAQTVSQTAASSPQDAYRSPHSPFYQLPPSVQRHSPNPLLVAPTPPALQKLLESFKIQYLQFLAYTKTPQYKASLQELLGQEKEKNAQLLGAAQQLLSHCQAQKEEIRRLFQQKLDELGVKALTYNDLIQAQKEISAHNQQLREQSEQLEQDNRALRGQSLQLLKARCEELQLDWATLSLEKLLKEKQALKSQISEKQRHCLELQISIVELEKSQRQQELLQLKSCVPPDDALSLHLRGKGALGRELEPDASRLHLELDCTKFSLPHLSSMSPELSMNGQAAGYELCGVLSRPSSKQNTPQYLASPLDQEVVPCTPSHVGRPRLEKLSGLAAPDYTRLSPAKIVLRRHLSQDHTVPGRPAASELHSRAEHTKENGLPYQSPSVPGSMKLSPQDPRPLSPGALQLAGEKSSEKGLRERAYGSSGELITSLPISIPLSTVQPNKLPVSIPLASVVLPSRAERARSTPSPVLQPRDPSSTLEKQIGANAHGAGSRSLALAPAGFSYAGSVAISGALAGSPASLTPGAEPATLDESSSSGSLFATVGSRSSTPQHPLLLAQPRNSLPASPAHQLSSSPRLGGAAQGPLPEASKGDLPSDSGFSDPESEAKRRIVFTITTGAGSAKQSPSSKHSPLTASARGDCVPSHGQDSRRRGRRKRASAGTPSLSAGVSPKRRALPSVAGLFTQPSGSPLNLNSMVSNINQPLEITAISSPETSLKSSPVPYQDHDQPPVLKKERPLSQTNGAHYSPLTSDEEPGSEDEPSSARIERKIATISLESKSPPKTLENGGGLAGRKPAPAGEPVNSSKWKSTFSPISDIGLAKSADSPLQASSALSQNSLFTFRPALEEPSADAKLAAHPRKGFPGSLSGADGLSPGTNPANGCTFGGGLAADLSLHSFSDGASLPHKGPEAAGLSSPLSFPSQRGKEGSDANPFLSKRQLDGLAGLKGEGSRGKEAGEGGLPLCGPTDKTPLLSGKAAKARDREVDLKNGHNLFISAAAVPPGSLLSGPGLAPAASSAGGAASSAQTHRSFLGPFPPGPQFALGPMSLQANLGSVAGSSVLQSLFSSVPAAAGLVHVSSAATRLTNSHAMGSFSGVAGGTVGGN
confocal microscopy of co-expressed hDOT1L and CALM-AF10: High resolution analysis of the proteins indicates that they colocalize in the nucleus
